Literature values in article PMC3985900.

What was measured:
Asp85 = Asp85 (UniProt position 98, WARYADWLFTT); test: UV-vis; conditions: Resting state, with retinal bound
Glu85 = Glu85 (UniProt position 98, WARYAEWLFTT); test: UV-vis; conditions: Resting state, with retinal bound

| Substance | pKa (Asp85) | pKa (Glu85) |
| --- | --- | --- |
| Bacteriorhodopsin (native, purple membrane) (Halobacterium salinarum) | ∼3 | – |
| Bacteriorhodopsin D85E (Halobacterium salinarum; D85E) | – | 9.4 |
